The target of one data set is T1, MipZ D42A (Caulobacter crescentus, UniProt Q9A6C9 1-278, D42A).
T1 sequence: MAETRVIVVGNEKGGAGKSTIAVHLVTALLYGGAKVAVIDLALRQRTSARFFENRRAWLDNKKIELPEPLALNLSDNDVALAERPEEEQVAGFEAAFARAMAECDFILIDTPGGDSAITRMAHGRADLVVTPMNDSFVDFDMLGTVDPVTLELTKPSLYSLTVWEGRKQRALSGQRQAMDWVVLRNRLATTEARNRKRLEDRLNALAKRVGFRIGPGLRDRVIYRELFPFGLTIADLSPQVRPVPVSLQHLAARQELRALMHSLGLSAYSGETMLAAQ
As to the kind of experiment: HDX-MS; 1 mM ATPgS; regions R1, R3, R4 protected; EMSA: 10 mM HEPES/NaOH pH 7.2, 150 mM NaCl, 10 mM MgCl2, 0.05% Tween 20, 0.46 mM ATPgS, room temp; BLI: 50 mM HEPES/NaOH pH 7.2, 50 mM NaCl, 5 mM MgCl2, 0.1 mM. As to conditions: protein: recombinant; tags: C-terminal His6 (pET21a); chain copies: 2; blunt.

The next data set deals with T2, ParA WT (Caulobacter crescentus, UniProt B8GW31 1-267).
T2 sequence: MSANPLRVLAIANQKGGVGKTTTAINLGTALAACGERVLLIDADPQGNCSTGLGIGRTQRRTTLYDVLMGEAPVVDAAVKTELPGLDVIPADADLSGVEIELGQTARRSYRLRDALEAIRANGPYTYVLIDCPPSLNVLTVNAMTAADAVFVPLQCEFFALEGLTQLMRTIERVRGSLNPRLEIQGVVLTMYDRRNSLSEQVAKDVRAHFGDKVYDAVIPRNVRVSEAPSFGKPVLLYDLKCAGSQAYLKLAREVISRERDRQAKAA
As to the kind of experiment: HDX-MS; 1 mM ATPgS; regions R1, R2, R4 protected; EMSA: 10 mM HEPES/NaOH pH 7.2, 150 mM NaCl, 10 mM MgCl2, 0.05% Tween 20, 0.46 mM ATPgS, room temp; BLI: 50 mM HEPES/NaOH pH 7.2, 50 mM NaCl, 5 mM MgCl2, 0.1 mM. As to conditions: protein: recombinant; tags: C-terminal His6; chain copies: 2; blunt. In general terms: Mobility shift assays separate free from complexed probe on a gel.

B1: ran14-up/ran14-lo 14 bp (dsDNA)
DNA 1: GCCGCCGCCGCCGC
DNA 2: GCGGCGGCGGCGGC
As to B1, the binding result with MipZ D42A and in the data set with ParA WT was “binds” in each case.

For the origin of these results see paper PMC7229837, “Molecular architecture of the DNA-binding sites of the P-loop ATPases MipZ and ParA from Caulobacter crescentus”.
